From patent publication US20250171512A1 come the findings set out here.

Sequence of FGF21 Y207 deleted (SEQ ID NO: 68) (Q9NSA1 other isoform, or with tags, fused parts or gaps): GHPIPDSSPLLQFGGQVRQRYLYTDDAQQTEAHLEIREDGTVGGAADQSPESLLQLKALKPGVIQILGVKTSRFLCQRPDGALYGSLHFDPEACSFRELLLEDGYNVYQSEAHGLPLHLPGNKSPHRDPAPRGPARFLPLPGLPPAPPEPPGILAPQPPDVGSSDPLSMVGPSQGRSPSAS
Sequence of FGF21 G198 deleted, S200 deleted (SEQ ID NO: 74) (Q9NSA1 other isoform, or with tags, fused parts or gaps): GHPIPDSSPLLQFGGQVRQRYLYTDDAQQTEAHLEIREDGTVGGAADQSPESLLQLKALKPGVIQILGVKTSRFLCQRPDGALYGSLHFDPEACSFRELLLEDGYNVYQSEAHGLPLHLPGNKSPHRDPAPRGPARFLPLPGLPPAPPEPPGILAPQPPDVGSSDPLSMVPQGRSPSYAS
Sequence of FGF21 Q184 deleted (SEQ ID NO: 60) (Q9NSA1 other isoform, or with tags, fused parts or gaps): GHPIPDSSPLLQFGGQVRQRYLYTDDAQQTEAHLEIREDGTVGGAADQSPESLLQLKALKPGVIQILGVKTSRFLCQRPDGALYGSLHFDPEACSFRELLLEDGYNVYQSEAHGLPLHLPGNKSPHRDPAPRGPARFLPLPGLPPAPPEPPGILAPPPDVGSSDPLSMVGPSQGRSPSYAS
Sequence of FGF21 G202 deleted (SEQ ID NO: 63) (Q9NSA1 other isoform, or with tags, fused parts or gaps): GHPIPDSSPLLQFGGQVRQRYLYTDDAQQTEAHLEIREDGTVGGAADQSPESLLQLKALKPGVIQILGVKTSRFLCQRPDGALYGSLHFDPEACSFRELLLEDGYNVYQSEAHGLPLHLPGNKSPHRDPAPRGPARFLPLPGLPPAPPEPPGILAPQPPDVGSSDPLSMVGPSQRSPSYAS
Sequence of FGF21 V197 deleted, S201 deleted (SEQ ID NO: 69) (Q9NSA1 other isoform, or with tags, fused parts or gaps): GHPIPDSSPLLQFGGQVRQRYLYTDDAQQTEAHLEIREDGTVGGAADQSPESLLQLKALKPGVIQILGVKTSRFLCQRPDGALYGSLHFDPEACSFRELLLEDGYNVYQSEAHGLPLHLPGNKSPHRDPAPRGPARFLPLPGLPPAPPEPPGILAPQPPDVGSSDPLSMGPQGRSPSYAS
Sequence of FGF21 S204 deleted (SEQ ID NO: 65) (Q9NSA1 other isoform, or with tags, fused parts or gaps): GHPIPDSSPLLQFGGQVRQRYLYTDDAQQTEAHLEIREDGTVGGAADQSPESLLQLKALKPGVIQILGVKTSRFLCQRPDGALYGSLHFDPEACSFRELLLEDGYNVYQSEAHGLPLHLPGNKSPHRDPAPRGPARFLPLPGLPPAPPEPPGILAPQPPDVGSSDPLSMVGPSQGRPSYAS
Sequence of FGF21 V197 deleted (SEQ ID NO: 34) (Q9NSA1 other isoform, or with tags, fused parts or gaps): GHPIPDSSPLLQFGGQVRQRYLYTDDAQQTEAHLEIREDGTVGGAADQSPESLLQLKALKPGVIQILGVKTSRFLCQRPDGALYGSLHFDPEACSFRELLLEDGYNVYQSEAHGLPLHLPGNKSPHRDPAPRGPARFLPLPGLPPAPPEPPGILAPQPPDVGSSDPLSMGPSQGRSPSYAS
Sequence of FGF21 R203 deleted (SEQ ID NO: 64) (Q9NSA1 other isoform, or with tags, fused parts or gaps): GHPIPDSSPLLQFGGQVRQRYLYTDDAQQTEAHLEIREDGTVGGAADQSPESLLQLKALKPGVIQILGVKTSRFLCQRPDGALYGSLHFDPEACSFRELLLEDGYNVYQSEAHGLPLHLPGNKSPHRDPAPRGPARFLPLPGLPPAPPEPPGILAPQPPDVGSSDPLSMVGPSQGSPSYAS
Sequence of FGF21 P205 deleted (SEQ ID NO: 66) (Q9NSA1 other isoform, or with tags, fused parts or gaps): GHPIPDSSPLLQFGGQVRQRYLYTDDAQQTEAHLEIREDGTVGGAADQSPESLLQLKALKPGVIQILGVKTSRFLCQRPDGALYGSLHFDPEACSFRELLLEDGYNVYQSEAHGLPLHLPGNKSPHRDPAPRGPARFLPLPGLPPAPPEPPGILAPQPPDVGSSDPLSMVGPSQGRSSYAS
Sequence of FGF21 G198-P199 deleted (SEQ ID NO: 30) (Q9NSA1 other isoform, or with tags, fused parts or gaps): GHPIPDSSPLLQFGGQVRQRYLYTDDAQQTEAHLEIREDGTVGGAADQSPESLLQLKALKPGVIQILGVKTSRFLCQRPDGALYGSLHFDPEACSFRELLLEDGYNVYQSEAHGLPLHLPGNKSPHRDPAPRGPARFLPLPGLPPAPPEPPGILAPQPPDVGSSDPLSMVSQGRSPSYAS
Sequence of FGF21 P185-P186 deleted (SEQ ID NO: 59) (Q9NSA1 other isoform, or with tags, fused parts or gaps): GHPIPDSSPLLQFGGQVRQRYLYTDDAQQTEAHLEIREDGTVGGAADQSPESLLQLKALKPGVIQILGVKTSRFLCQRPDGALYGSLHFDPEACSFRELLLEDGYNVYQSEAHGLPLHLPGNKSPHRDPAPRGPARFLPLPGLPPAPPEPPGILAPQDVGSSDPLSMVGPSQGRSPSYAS
Sequence of FGF21 G189 deleted (SEQ ID NO: 55) (Q9NSA1 other isoform, or with tags, fused parts or gaps): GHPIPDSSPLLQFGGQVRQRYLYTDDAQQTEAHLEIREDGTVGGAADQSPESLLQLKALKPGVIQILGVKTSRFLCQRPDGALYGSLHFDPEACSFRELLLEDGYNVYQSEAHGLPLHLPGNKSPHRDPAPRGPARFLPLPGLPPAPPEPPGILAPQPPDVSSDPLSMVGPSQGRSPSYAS
Sequence of FGF21 S206 deleted (SEQ ID NO: 67) (Q9NSA1 other isoform, or with tags, fused parts or gaps): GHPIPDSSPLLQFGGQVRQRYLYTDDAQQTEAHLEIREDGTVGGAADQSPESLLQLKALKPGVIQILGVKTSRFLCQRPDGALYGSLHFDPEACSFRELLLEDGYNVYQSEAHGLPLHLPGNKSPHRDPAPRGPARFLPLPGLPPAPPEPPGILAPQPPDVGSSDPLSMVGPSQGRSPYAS
Sequence of FGF21 G198 deleted (SEQ ID NO: 29) (Q9NSA1 other isoform, or with tags, fused parts or gaps): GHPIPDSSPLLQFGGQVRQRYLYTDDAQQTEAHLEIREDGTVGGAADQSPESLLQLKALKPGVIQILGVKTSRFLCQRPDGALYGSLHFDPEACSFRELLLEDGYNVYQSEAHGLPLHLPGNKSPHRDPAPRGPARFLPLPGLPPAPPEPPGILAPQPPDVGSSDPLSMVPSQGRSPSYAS
Sequence of FGF21 GGGGS inserted between G198 and P199 (SEQ ID NO: 15) (Q9NSA1 other isoform, or with tags, fused parts or gaps): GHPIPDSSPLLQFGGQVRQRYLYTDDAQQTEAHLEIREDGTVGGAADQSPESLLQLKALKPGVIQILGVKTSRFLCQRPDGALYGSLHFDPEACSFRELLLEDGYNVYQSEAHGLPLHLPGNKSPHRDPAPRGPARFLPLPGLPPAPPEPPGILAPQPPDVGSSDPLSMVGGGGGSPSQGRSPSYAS
Sequence of FGF21 P186 deleted (SEQ ID NO: 58) (Q9NSA1 other isoform, or with tags, fused parts or gaps): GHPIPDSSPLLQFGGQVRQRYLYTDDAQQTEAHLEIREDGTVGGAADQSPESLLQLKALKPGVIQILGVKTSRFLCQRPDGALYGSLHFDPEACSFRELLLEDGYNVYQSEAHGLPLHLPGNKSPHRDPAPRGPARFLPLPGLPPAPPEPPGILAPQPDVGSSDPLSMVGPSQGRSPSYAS

In the experiment the target is human FGFR1c together with human beta-Klotho (KLB), stably expressed on CHO Flp-In cells (human) (UniProt P11362). As to the kind of experiment: cell-based or functional assay.
Sequence of human FGFR1c together with human beta-Klotho (KLB), stably expressed on CHO Flp-In cells (human) (P11362 22-822, chain 1 of 2): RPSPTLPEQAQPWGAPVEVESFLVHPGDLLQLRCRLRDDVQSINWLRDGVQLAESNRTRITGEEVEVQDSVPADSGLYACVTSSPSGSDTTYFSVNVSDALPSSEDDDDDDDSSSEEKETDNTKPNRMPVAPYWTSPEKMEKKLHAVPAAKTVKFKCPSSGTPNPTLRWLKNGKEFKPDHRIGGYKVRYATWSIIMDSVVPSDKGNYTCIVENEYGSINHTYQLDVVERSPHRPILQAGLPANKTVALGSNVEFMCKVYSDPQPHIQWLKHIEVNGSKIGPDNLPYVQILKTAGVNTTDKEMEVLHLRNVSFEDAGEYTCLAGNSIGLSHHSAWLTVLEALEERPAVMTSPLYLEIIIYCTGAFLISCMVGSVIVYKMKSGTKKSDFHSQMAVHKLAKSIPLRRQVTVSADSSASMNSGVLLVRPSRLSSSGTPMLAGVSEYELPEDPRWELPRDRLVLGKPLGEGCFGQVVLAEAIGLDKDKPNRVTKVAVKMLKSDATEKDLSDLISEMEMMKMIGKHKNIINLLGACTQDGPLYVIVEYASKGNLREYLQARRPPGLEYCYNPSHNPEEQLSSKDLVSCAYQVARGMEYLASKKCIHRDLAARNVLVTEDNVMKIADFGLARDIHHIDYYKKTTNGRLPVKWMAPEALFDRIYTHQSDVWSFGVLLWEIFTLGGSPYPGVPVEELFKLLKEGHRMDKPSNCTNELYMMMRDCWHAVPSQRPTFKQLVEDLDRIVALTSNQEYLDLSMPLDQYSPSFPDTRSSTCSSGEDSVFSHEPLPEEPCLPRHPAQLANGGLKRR
Sequence of human FGFR1c together with human beta-Klotho (KLB), stably expressed on CHO Flp-In cells (human) (Q86Z14 whole entry, chain 2 of 2, further chain): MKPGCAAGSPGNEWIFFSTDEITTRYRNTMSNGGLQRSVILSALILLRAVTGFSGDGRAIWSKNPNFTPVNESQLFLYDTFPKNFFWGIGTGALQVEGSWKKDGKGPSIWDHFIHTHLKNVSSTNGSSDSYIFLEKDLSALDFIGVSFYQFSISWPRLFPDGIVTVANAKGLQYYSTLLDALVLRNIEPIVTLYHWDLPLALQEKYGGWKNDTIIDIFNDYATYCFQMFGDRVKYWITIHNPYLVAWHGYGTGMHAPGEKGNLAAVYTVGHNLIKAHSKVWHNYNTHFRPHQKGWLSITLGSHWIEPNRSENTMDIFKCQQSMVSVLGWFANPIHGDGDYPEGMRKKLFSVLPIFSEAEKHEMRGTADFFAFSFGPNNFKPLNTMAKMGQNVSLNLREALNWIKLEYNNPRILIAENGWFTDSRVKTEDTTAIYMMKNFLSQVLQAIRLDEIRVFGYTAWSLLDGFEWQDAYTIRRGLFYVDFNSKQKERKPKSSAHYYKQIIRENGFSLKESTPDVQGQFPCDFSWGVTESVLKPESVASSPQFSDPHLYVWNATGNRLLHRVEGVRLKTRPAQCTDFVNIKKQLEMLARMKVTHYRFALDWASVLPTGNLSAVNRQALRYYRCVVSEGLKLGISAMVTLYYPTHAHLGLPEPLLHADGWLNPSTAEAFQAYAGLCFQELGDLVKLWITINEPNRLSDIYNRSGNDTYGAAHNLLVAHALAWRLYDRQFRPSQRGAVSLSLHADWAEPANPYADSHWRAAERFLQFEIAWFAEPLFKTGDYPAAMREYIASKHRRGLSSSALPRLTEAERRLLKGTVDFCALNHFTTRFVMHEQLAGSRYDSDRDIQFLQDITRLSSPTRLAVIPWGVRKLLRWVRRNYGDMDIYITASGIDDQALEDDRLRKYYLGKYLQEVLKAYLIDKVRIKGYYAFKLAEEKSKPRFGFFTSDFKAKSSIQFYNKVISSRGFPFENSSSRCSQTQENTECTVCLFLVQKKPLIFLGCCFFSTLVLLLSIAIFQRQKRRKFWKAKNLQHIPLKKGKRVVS
The substance “FGF21 A59C, G71C, G198Y (SEQ ID NO: 37) (from UniProt Q9NSA1 29-209) (ligand)” returned a pERK ICW EC50 of 0.75 nmol/L.

“FGF21 P199T (SEQ ID NO: 23) (from UniProt Q9NSA1 29-209) (ligand)” displayed a pERK ICW EC50 of 1.66 nmol/L.

As for “FGF21 Q55G, Q56C, L146C, P147-R159 deleted and replaced by GGSGGS (SEQ ID NO: 98) (from UniProt Q9NSA1 29-209) (ligand)”, the pERK ICW EC50 stood at 155 nmol/L.

“FGF21 L146C, A162C (SEQ ID NO: 35) (from UniProt Q9NSA1 29-209) (ligand)”: the pERK ICW EC50 turned out to be 8.28 nmol/L.

The substance “FGF21 L81C, G95C (SEQ ID NO: 121) (from UniProt Q9NSA1 29-209) (ligand)” gave a pERK ICW EC50 of 46.5 nmol/L.

As to “FGF21 P185-P186 deleted (SEQ ID NO: 59) (from UniProt Q9NSA1 29-209) (ligand)”, the pERK ICW EC50 is 21.1 nmol/L.

“FGF21 G108C, L142C, P199 deleted (SEQ ID NO: 40) (from UniProt Q9NSA1 29-209) (ligand)” yielded a pERK ICW EC50 of 0.9 nmol/L.

With “FGF21 G198E (SEQ ID NO: 16) (from UniProt Q9NSA1 29-209) (ligand)”, the pERK ICW EC50 came out at 4.53 nmol/L.

As to “FGF21 Q184 deleted (SEQ ID NO: 60) (from UniProt Q9NSA1 29-209) (ligand)”, the pERK ICW EC50 stood at 2.26 nmol/L.

The substance “FGF21 P199G (SEQ ID NO: 21) (from UniProt Q9NSA1 29-209) (ligand)” had a pERK ICW EC50 of 1.65 nmol/L.

“FGF21 I63C, T98C (SEQ ID NO: 111) (from UniProt Q9NSA1 29-209) (ligand)” displayed a pERK ICW EC50 of 87.6 nmol/L.

Substance “FGF21 G189 deleted (SEQ ID NO: 55) (from UniProt Q9NSA1 29-209) (ligand)” showed a pERK ICW EC50 of 76.2 nmol/L.

For “FGF21 Q55C, G148C, N149-R159 deleted and replaced by GSGS (SEQ ID NO: 94) (from UniProt Q9NSA1 29-209) (ligand)”, the pERK ICW EC50 amounted to 8.19 nmol/L.

“FGF21 G198R (SEQ ID NO: 18) (from UniProt Q9NSA1 29-209) (ligand)” came in with a pERK ICW EC50 of 1.15 nmol/L.

On to “FGF21 Q55C, N149C, P199 deleted (SEQ ID NO: 46) (from UniProt Q9NSA1 29-209) (ligand)”, for which the pERK ICW EC50 turned out to be 1.7 nmol/L.

Turning to “FGF21 S195C, S200C (SEQ ID NO: 8) (from UniProt Q9NSA1 29-209) (ligand)”, the pERK ICW EC50 is 10.8 nmol/L.

On to “FGF21 P199S, S200P (SEQ ID NO: 9) (from UniProt Q9NSA1 29-209) (ligand)”, for which the pERK ICW EC50 turned out to be 1.72 nmol/L.

Take “FGF21 Q104C, S137C (SEQ ID NO: 107) (from UniProt Q9NSA1 29-209) (ligand)”: the pERK ICW EC50 was 1.83 nmol/L.

“FGF21 P205 deleted (SEQ ID NO: 66) (from UniProt Q9NSA1 29-209) (ligand)” came in with a pERK ICW EC50 of 27.4 nmol/L.

In turn, “FGF21 P143C, A162C (SEQ ID NO: 116) (from UniProt Q9NSA1 29-209) (ligand)” displayed a pERK ICW EC50 of 17.6 nmol/L.

In the case of “FGF21 Y207 deleted (SEQ ID NO: 68) (from UniProt Q9NSA1 29-206) (ligand)”, the pERK ICW EC50 turned out to be 7.14 nmol/L.

“FGF21 P199 deleted (SEQ ID NO: 11) (from UniProt Q9NSA1 29-209) (ligand)” yielded a pERK ICW EC50 of 2.31 nmol/L.

As for “FGF21 R47C, P174C (SEQ ID NO: 90) (from UniProt Q9NSA1 29-209) (ligand)”, the pERK ICW EC50 worked out at 14.5 nmol/L.

The substance “FGF21 I63C, G112C (SEQ ID NO: 79) (from UniProt Q9NSA1 29-209) (ligand)” registered a pERK ICW EC50 of 5.05 nmol/L.

Substance “FGF21 V197 deleted (SEQ ID NO: 34) (from UniProt Q9NSA1 29-209) (ligand)” showed a pERK ICW EC50 of 68.8 nmol/L.

“FGF21 S200Q, Q201S (SEQ ID NO: 25) (from UniProt Q9NSA1 29-209) (ligand)”: the pERK ICW EC50 came out at 1.62 nmol/L.

The substance “FGF21 R203 deleted (SEQ ID NO: 64) (from UniProt Q9NSA1 29-209) (ligand)” registered a pERK ICW EC50 of 6.69 nmol/L.

In turn, “FGF21 V197E (SEQ ID NO: 14) (from UniProt Q9NSA1 29-209) (ligand)” had a pERK ICW EC50 of 31.4 nmol/L.

“FGF21 G198 deleted, S200 deleted (SEQ ID NO: 74) (from UniProt Q9NSA1 29-209) (ligand)” registered a pERK ICW EC50 of 77.8 nmol/L.

As to “FGF21 S204 deleted (SEQ ID NO: 65) (from UniProt Q9NSA1 29-209) (ligand)”, the pERK ICW EC50 is 25.7 nmol/L.

Regarding “FGF21 E78C, T98C (SEQ ID NO: 118) (from UniProt Q9NSA1 29-209) (ligand)”, the pERK ICW EC50 is 9.22 nmol/L.

On to “FGF21 V197-R203 deleted and replaced by GLNSMV (SEQ ID NO: 28) (from UniProt Q9NSA1 29-209) (ligand)”, for which the pERK ICW EC50 was found to be 78.1 nmol/L.

“FGF21 A120C, A139C (SEQ ID NO: 114) (from UniProt Q9NSA1 29-209) (ligand)” displayed a pERK ICW EC50 of 22 nmol/L.

“FGF21 S206 deleted (SEQ ID NO: 67) (from UniProt Q9NSA1 29-205) (ligand)” returned a pERK ICW EC50 of 31.9 nmol/L.

In turn, “FGF21 Q82C, L94C (SEQ ID NO: 122) (from UniProt Q9NSA1 29-209) (ligand)” came in with a pERK ICW EC50 of 5.57 nmol/L.

On to “FGF21 R100C, L114C (SEQ ID NO: 103) (from UniProt Q9NSA1 29-209) (ligand)”, for which the pERK ICW EC50 is 48.2 nmol/L.

Regarding “FGF21 V197D, G198V, P199D, S200H (SEQ ID NO: 26) (from UniProt Q9NSA1 29-209) (ligand)”, the pERK ICW EC50 stood at 85.8 nmol/L.

“FGF21 V197 deleted, S201 deleted (SEQ ID NO: 69) (from UniProt Q9NSA1 29-209) (ligand)” displayed a pERK ICW EC50 of 98.7 nmol/L.

“FGF21 G67C, R100C (SEQ ID NO: 112) (from UniProt Q9NSA1 29-209) (ligand)” had a pERK ICW EC50 of 23.3 nmol/L.

Substance “FGF21 Q201 deleted (SEQ ID NO: 62) (from UniProt Q9NSA1 29-209) (ligand)” registered a pERK ICW EC50 of 1.91 nmol/L.

Consider “FGF21 P199R (SEQ ID NO: 22) (from UniProt Q9NSA1 29-209) (ligand)”, for which the pERK ICW EC50 was found to be 0.95 nmol/L.

“FGF21 G108C, L142C (SEQ ID NO: 86) (from UniProt Q9NSA1 29-209) (ligand)” displayed a pERK ICW EC50 of 1.48 nmol/L.

For “FGF21 S76C, S79C, P199 deleted (SEQ ID NO: 38) (from UniProt Q9NSA1 29-209) (ligand)”, the pERK ICW EC50 worked out at 1.25 nmol/L.

In turn, “FGF21 E62C, E78C (SEQ ID NO: 101) (from UniProt Q9NSA1 29-209) (ligand)” had a pERK ICW EC50 of 2.44 nmol/L.

With “FGF21 G198 deleted (SEQ ID NO: 29) (from UniProt Q9NSA1 29-209) (ligand)”, the pERK ICW EC50 turned out to be 41.6 nmol/L.

For the substance “FGF21 S76C, S79C, G198Y (SEQ ID NO: 39) (from UniProt Q9NSA1 29-209) (ligand)”, the pERK ICW EC50 turned out to be 0.15 nmol/L.

With “FGF21 Q55G, Q56C, L146C (SEQ ID NO: 96) (from UniProt Q9NSA1 29-209) (ligand)”, the pERK ICW EC50 was determined as 163 nmol/L.

Substance “FGF21 A59C, G71C (SEQ ID NO: 77) (from UniProt Q9NSA1 29-209) (ligand)” showed a pERK ICW EC50 of 2.15 nmol/L.

For the substance “FGF21 H140C, L142C (SEQ ID NO: 82) (from UniProt Q9NSA1 29-209) (ligand)”, the pERK ICW EC50 was 2.27 nmol/L.

Substance “FGF21 G198 deleted, P199L (SEQ ID NO: 32) (from UniProt Q9NSA1 29-209) (ligand)” registered a pERK ICW EC50 of 4.8 nmol/L.

In turn, “FGF21 A72C, S79C, G108C, L142C (SEQ ID NO: 89) (from UniProt Q9NSA1 29-209) (ligand)” gave a pERK ICW EC50 of 8.24 nmol/L.

The substance “FGF21 G198 deleted, P199L, S200N (SEQ ID NO: 33) (from UniProt Q9NSA1 29-209) (ligand)” came in with a pERK ICW EC50 of 9.44 nmol/L.

As for “FGF21 H60C, S79C (SEQ ID NO: 75) (from UniProt Q9NSA1 29-209) (ligand)”, the pERK ICW EC50 stood at 67.1 nmol/L.

“FGF21 D130C, Y132C (SEQ ID NO: 83) (from UniProt Q9NSA1 29-209) (ligand)”: the pERK ICW EC50 stood at 49.4 nmol/L.

The substance “FGF21 G202 deleted (SEQ ID NO: 63) (from UniProt Q9NSA1 29-209) (ligand)” registered a pERK ICW EC50 of 8.18 nmol/L.

Substance “FGF21 A54C, P161C (SEQ ID NO: 109) (from UniProt Q9NSA1 29-209) (ligand)” gave a pERK ICW EC50 of 6.38 nmol/L.

As for “FGF21 Q55C, P147C, P199 deleted (SEQ ID NO: 44) (from UniProt Q9NSA1 29-209) (ligand)”, the pERK ICW EC50 worked out at 10 nmol/L.

The substance “FGF21 Q55G, Q56C, L146C, P147-R159 deleted and replaced by GSGS (SEQ ID NO: 97) (from UniProt Q9NSA1 29-209) (ligand)” displayed a pERK ICW EC50 of 114 nmol/L.

Regarding “FGF21 P186 deleted (SEQ ID NO: 58) (from UniProt Q9NSA1 29-209) (ligand)”, the pERK ICW EC50 turned out to be 0.87 nmol/L.

In the case of “FGF21 H145C, P161C (SEQ ID NO: 120) (from UniProt Q9NSA1 29-209) (ligand)”, the pERK ICW EC50 is 6.51 nmol/L.

“FGF21 G198-P199 deleted (SEQ ID NO: 30) (from UniProt Q9NSA1 29-209) (ligand)” returned a pERK ICW EC50 of 14.5 nmol/L.

Turning to “FGF21 R124C, Q136C (SEQ ID NO: 115) (from UniProt Q9NSA1 29-209) (ligand)”, the pERK ICW EC50 stood at 22.6 nmol/L.

In the case of “FGF21 M196V, V197M (SEQ ID NO: 13) (from UniProt Q9NSA1 29-209) (ligand)”, the pERK ICW EC50 came out at 26.7 nmol/L.

In the case of “FGF21 GGGGS inserted between G198 and P199 (SEQ ID NO: 15) (from UniProt Q9NSA1 29-209) (ligand)”, the pERK ICW EC50 worked out at 3.07 nmol/L.

As to “FGF21 S191 deleted (SEQ ID NO: 53) (from UniProt Q9NSA1 29-209) (ligand)”, the pERK ICW EC50 is 97.3 nmol/L.
